Measurements from article PMC3781208 (Chemistry & biology, 2013).
Positions of bridges follow the written chain, without caps; N, C: chain ends. Non-standard residues stand in square brackets, D forms with d. Residues, ends and D or L forms follow the SMILES beside them. *: point of attachment. FITC = O=C1OC2(c3ccc(O)cc3Oc3cc(O)ccc32)c2ccc(NC(=S)*)cc21; S5 = C=CCCC[C@](C)(N)C(=O)O; Nle = CCCC[C@H](N)C(=O)O; βAla = NCCC(=O)O

Key:
BAXΔC = BAXΔC (Homo sapiens, UniProt Q07812); experiment: Fluorescence polarization binding assay, BAXΔC; settings: ratio of FP KDs
BAXΔC, sequence (Q07812 whole entry, stated change not applied): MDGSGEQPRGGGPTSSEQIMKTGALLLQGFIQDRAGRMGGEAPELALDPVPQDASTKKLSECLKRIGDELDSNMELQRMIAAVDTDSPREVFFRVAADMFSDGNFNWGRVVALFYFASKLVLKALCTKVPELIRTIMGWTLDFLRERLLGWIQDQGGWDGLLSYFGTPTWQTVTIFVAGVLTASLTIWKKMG

FITC-PUMA SAHBF1 = FITC-PUMA SAHBF1 (UniProt Q9BXH1); experiment: fluorescence polarisation
FITC-PUMA SAHBF1, sequence (Q9BXH1 131-153): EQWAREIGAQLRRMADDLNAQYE

[1] = biological target: FITC-PUMA BH3 (aa 131–153) (UniProt Q9BXH1); experiment: fluorescence polarisation

Row | Kd (FITC-PUMA SAHBF1) | Kd [1] | Compound | preference for BAXΔC over BAX A112C/V177C (BAXΔC)
1 |  |  | CCCC[C@@H]1NC(=O)[C@@](C)(NC(=O)[C@H](CCCNC(=N)N)NC(=O)[C@H](CC(C)C)NC(=O)[C@H](CCC(N)=O)NC(=O)[C@H](C)NC(=O)CNC(=O)[C@@H](NC(=O)[C@H](CCC(=O)O)NC(=O)[C@H](CCCNC(=N)N)NC(=O)[C@H](C)NC(=O)[C@H](Cc2c[nH]c3ccccc23)NC(=O)[C@H](CCC(N)=O)NC(=O)[C@H](CCC(=O)O)NC(=O)CCNC(=S)Nc2ccc3c(c2)C(=O)OC32c3ccc(O)cc3Oc3cc(O)ccc32)[C@@H](C)CC)CCCC=CCCC[C@@](C)(C(=O)N[C@@H](CC(C)C)C(=O)N[C@@H](CC(N)=O)C(=O)N[C@@H](C)C(=O)N[C@@H](CCC(N)=O)C(=O)N[C@@H](Cc2ccc(O)cc2)C(=O)N[C@@H](CCC(=O)O)C(N)=O)NC(=O)[C@H](CC(=O)O)NC(=O)[C@H](C)NC1=O [FITC-PUMA SAHBA1] ({FITC-βAla}-EQWAREIGAQLR[S5][Nle]AD[S5]LNAQYE-NH2; staple 13-17; N-terminus and C-terminus assumed) | 3 fold
2 | 90 nM |  | BAX A112C/V177C (from UniProt Q07812 1-192) (natural protein) | 
3 | 70 nM | 306 nM | BAXΔC (domain or fragment) | 
